In the DeepSol protein solubility set:

Test: soluble on expression in E. coli; label from the status in PepcDB or PDB records

Sequence	soluble on expression in E. coli
MLNFLSISSEPKIKSLAIGKFDGLHLGHQALFKELKDPKALLIIEKKHYTKGYLTPLKYRAKLVGMPLFFVYLEEISQLNALDFLDLLKKKFPHLERLVVGYDFRFGHERQNDALFLKERFEKTIIVPEVKVQEISVHSKMIKLALSHGDLSLANKLLGRPYEVCGEVISDQGLGHKELAPTLNIKTKDFILPSFGVYASLVKIKDPIYQKSVSFIGNRLSTDQNFAIECHVLDTIIENPPQEIALRWVQKIRDNMRFSSLKELKNQIQQDILRAKEILR	not soluble
MIPEQRREQILRQLRKHQVLSVHQLMEMFDCSHMTVRRDIALLEQEGRAHSVTGGVRIASQLHSEPSHQSKAVVELPQKQAMAKLAASLLHADMTVYLDAGTSTLEIVHYIKALSGMTVVTNDFGVAQALMDAPQVTVIHTGGQLDHSNHSCVGGLAVATLRQVVTDVAFISTSSWDLRRGITTPSALKVEVKQVAMQSATQVVLVASSSKYGTFSMYKIAGLEQFDIIISDAALAPAAADGIRKHGVELLLPAQSLEHHHHHH	not soluble
MGSDKIHHHHHHMTEATYYFIGIKGSGMSALALVLHDLGHQVLGSDITQYTFTQKGLAAAGIKMLPFDPANLKPGYTVIAGNSFTDDHPEIKRAKELGLTIYRYHEFLGKLIEGYTSIGVAGAHGKTSTTGLLAHTLSGVAKTSYLIGDGTGKGIPDSKFFVFEADEYRRHFLAYHPDYMIMTNIDFDHPDYYTGFEDVYDAFETEANQVKKAIVAWGDDPWLRKLKAKVPVYYYGISDRDDFQARNVDRDTKGSSFDAYFHDQLIGHFFVPLFGEHSVLNALAVVAVAHMEKLDAKLIARELGNFSGVKRRFAEKDLKDMIIVDDYAHHPNEIKATLDAARQKYPDKAIIAVFQPHTFSRTQAYEPQYVQVLSQADQTFLTPIFSSAREKTGKIRSEDITAQIKGAAVIHQEDMKPLLQYHNAVVVFMGAGDIQKYEKAYETILAEE	not soluble
MSKFTIGPLPCKNPESFTKLSAKKDTVRKTEPVEVVCRNVEGENNGECYKIKAPKTPFIINHLEKNYIPKPKETTKKRRAGEAGGVKREHSTSESDDQLEDANQPSTSSQQSSSRKKQRNQQDI	not soluble
MAHHHHHHMCCTFWGLRLDNTCNNMKSVDIIKCDMCFFSHDGLFLIYTIINKIFVIQVKNLEMYRIYVESYKVDDIKLSSDNIHFLTLIKNKGCVCIYSFYKNNLINKICDYFQTYDHSFFLSKHNNIGIVKYEKKCLTIYNMNNPEKCLINIENIKYQNKGYCSNYINTIFACLVENKKDVNILLLSLFNYTIIKIIKCINFFPNDILFSKSDHIIAYSNKNRSLHIYSIDGDLLHVYKYAEDLGGNTKNVKKKKKKKKKSKFCAWKILKKSSFSFWITHCK	not soluble
IHDDPVEQRDADVAMEKSHRARNERKKNKNHTPSEHPAAAAMHEEKKKVSIEDLVAAVVIEDDPQPEPDVVPTPADDDVMDIVSAALDRAYEEDPDEPSGSDYLPLEEKPQTYAEAVEEFERSPRRKRKTRGNSVSDVPPRKADFEKPEPQPEPEVVVEKVSSRGRRRAVRRTVVEATPEVVAPTETVESSRGRRRAVRKKMAPQPVQTEAVVEDKHEVSAPSQGGRGRRRASRRAPRR	not soluble
MVSAPPTLQDQAFRSLVRNEVLTVSDAECLIREFFPPLFKEASTQKKPKTIMILVEHWPYPCLHVGLLIDKPNFQIFQAILDGVDTWLKRKYRPRMGRLKKVDFRDAQHHASLDMQDEREGRDYLVGTLPKKQIVEDHSRTRKERLKLFHDLSFMSSLHEDKHQTLLLEWAKERTSFLHLCCEKLEIGAVEVSKVRNVLKFLQPELIKELKLNTVGNLSKLAKFVPFIRKMRNLQKLMLVRTFGTRTFTQEEKQNISKIISLFCKLSCLRHLTIDDVYFLTDQMKELLRCLEAPLVSLKITLCQLSQSDLESFAQRWNYSQLKHLCLRGVTLTNLDVTPLRDFLKRVAANLQTLDLEDCRMDDSHFRTLLPALIKCTQLTSINLYDNDISEDVLENFLHRTTNLSQLTTEMYPAPSEVYNESNYVIVEIFIQICSELMNKLMEVRQANSVCFGSSSCYDCDNRYLYEDDGDVTLCLCQE	not soluble
GMPHVHVSTDNSLLDIGLIHRTLSQDTDWAKDIPLALVQRAIDHSLCFGGFVDGRQVAFARVISDYATFAYLGDVFVLPEHRGRGYSKALMDAVMAHPDLQGLRRFSLATSDAHGLYARYGFTPPLFPQSLMERYVPGLYST	soluble
MGSDKIHHHHHHDLTEEIHSSVIAENYYNNAGEVMAAMMRPWGHFCGTMQVAQSPWSCNELSSDCAAWPQKGRHGYDNGDWIRLHRHQWIPTDGQVVDAWKKLFEGIGYANNFLTDTENIDFEALQVPMSKAQAQAEMRVYRAYCYWYVMDMFGTAPICEKIGEINPSSKSRAELFAWIEKELNESIPSLSESKTETYGRVSKWGAYALLARLYLNAEIYTGQARWDDCIAACDELAKGGFALDKKWNDTFRADNDKRSTEIIWSIVYDEVYAKGMGWYQRWLHYAHQTGWDLQSGPWNGLVTQPTFYDSFADNDLRKIEGFLIGKQYPRKVDENGNYYYDTTAEPLKGSEEYNGQDLVFVNYIKSMTEGEENSGARSIKYEIQPGTTGDMNNDWVMFRYSEVIYNKAEALMRKNGGKATQEVVDMINSVRQRSFKAEDWEKAKYTTATLTMDEFLAEKGREFAFEGIRRTDLVRFNKFVTTSWWDKTASNEPKRNIFPIPQRQLDANANLSPNEANSLF	not soluble
MHPRKIEIVTAAVTCFLERGYHQTGIRDIARQAGVSLGNLYNHFAGKEAVLAFIAELEGRELAAFVDMLSDPEEPYAALERFIWAYAAYAARPENALLGLELMAEALRNPTISQVFDGNRHQLVAALMGCLERGVSTGRFRHLDDTRALALMILDTLEGQGLRQLDRKTPDPDAVRTLCAVLTTGLLARDQSPPPVPCNTPCSSA	not soluble
MLLDSIFFRTHPDWIVCCRFLQGVGTDREKREENGRKKTVKITIFSDCMLWANPISLCIRHRAVFNNRNLRMDFSSYTILCLNRLDAWIPAFGIPK	not soluble
MAHHHHHHMSSSAVPAYEGKQKVYALLNGTFHAAIVLEVAEDATEGGFLYYVRYVEQDSRLDQWLQASDIKERHQGRTHHGSSCTHQQYTPSGIKTRRQSHVTEQQNAETAVLTGEGVGMPTEVSANAKGGGAAPHLVKVSKTRARRDSAFFSRTKNIYSICMGPHEVETWYFSPYHLARPEVQQRLQAASQCVTGSTELQLVQSTTSPGGTSGVSTGIADVGGGAGGTGNVSVGAGGSGRGSGAGMRQWPIATRSFSLHICPYCLRPFLDNAAVVRHLQQDCLRHPPGNEIYRDPVRRLVVLELDGSLEPTFCEHLALLSKLFLEHKALDHDMTPFLFYVLCSVETHGLQVLGYFSKEKQTPEPYNLSCILVLPQYQSRGIGRFLIELSYELSRREGKVGTPEKPLSDLGEKLYLSYWADSVTMAIARAMEEGHCVSVDYLVQATAMIQADVIRALQHQKLLNGHQLTISEDIVERCYTKRLTKERDITSYTFYTHLLSWAPGFYEEFRGVPPAPTFVPWRDPSAPHSRTGG	not soluble
MGSDKIHHHHHHMSDRNTSNSLTLKERMLSAGAGSVLTSLILTPMDVVRIRLQQQQMIPDCSCDGAAEVPNAVSSGSKMKTFTNVGGQNLNNAKIFWESACFQELHCKNSSLKFNGTLEAFTKIASVEGITSLWRGISLTLLMAIPANMVYFSGYEYIRDVSPIASTYPTLNPLFCGAIARVFAATSIAPLELVKTKLQSIPRSSKSTKTWMMVKDLLNETRQEMKMVGPSRALFKGLEITLWRDVPFSAIYWSSYELCKERLWLDSTRFASKDANWVHFINSFASGCISGMIAAICTHPFDVGKTRWQISMMNNSDPKGGNRSRNMFKFLETIWRTEGLAALYTGLAARVIKIRPSCAIMISSYEISKKVFGNKLHQ	not soluble
MSLQLKSEKARIILSGEPTLLIDKGKIDISALKSQRLNINDLMEELRLKNYFNVEDIEYAILETSGQISLIPKTHLTNATKEDLNLKVKQENVPITIILDGKVNTDNIKYLNKDADWLMKELKKNKIDSPKDVFLALIDSKGKFYYQKYNNEGHHHHHH	not soluble
MPSEKEDDVMKNVTFAEGKKFGDWKIGKTIDEGGFGKVYIATSISDPKKVAALKAESNEIEGGSAIKLEAMILNKLNANGPVPHIPVVHLCAKRKLYCYMVMTLLGRNLRKLKSTNLVVNNGFSRGTWSRIGIQCLYALKYVHDNGFIHRDVKPQNFLLGNETDSERARIVHILDFGLARPFAVFHARENKWIARRARGTAEFRGTLRYTSPNVHLRKEQGRVDDVWSLLYVIIELNGGKALPWQTDSQRERVEQMKLNLPAKVVMSNMPACMDKVMPHLASLDYYQRPDYHMIFKCFWQVMENEKITPSSKYDWEKDEPDKSVPPASWENPAGPFFQSDPLGINAPPTPAEAALTEKSGKKHGKK	soluble
MEGPLTIPVLDKGFVRLVDQMGDDRAIVQAARVSYGEGTKTVREDAALIDYLMRHRHTSPFEMVVFKFHVKAPIFVARQWFRHRTASVNEISGRYSILKEEFYEPEAFRKQAKRNKQASEGALLDEEALALLRKVQQEAYGAYRALLEKGVAREMARMVLPLNLYTEFYWKQDLHNLFHFLKLRLAPEAQWEIRQYARAIAEIVKERVPLAWAAFEEHLLEGAFLSRTELRALRGLLTPEVYEKALSSLGLGGSRLKEALEKVFGPGEAL	soluble
MSLLIVQKYGGTSMGSIERIHNVAQRVLESVTLGHQVVVVVSAMSGETDRLLEFGKNFSHNPNKREMDRIVSVGELVSSAALSMALERYGHRAISLSGKEAGILTSSHFQNAVIQSIDTKRITELLEKNYIVVIAGFQGADIQGETTTLGRGGSDLSAVALAGALKAHLCEIYTDVDGVYTTDPRIEEKAQKIAQISYDEMLELASMGAKVLLNRSVELAKKLSVKLVTRNSFNHSEGTLIVAEKDFKGERMETPIVSGIALDKNQARVSMEGVEDRPGIAAEIFGALAEYRINVDMIVQTIGRDGKTDLDFTIVKTQIEETKQALKPFLAQMDSIDYDENIAKVSIVGVGMKSHSGVASIAFKALAKDNINIMMISTSEIKISVLIDIKYAELAVRTLHAVYQLDQEGHHHHHH	not soluble
MAHSGDNHSSEFCMLRSLSASIGADPLLVQGAGGNTSIKQAGVLWIKASGTWLKNARDDEIMVPVALAPLLDAVSHRSPAAEAAGQFTLADLNPRQLRPSIETTVHALLPQKIVVHVHCVETISIAVQANAEALLEGRLRGLDWAFVPYRRPGLPLAQAIAERLKPATNVLVLGNHGLVVAADTVAEAALLLQRVTGLLARQPRPAPPPDLDALLRLAAGSDYRLPASTAAHAVATDLASCRIAASGSLYPDHVIFLGVGSVIAGPGENAAAVVARTAAAPTSILFPGKGVLMRREANAGAEAMARCLADVVARVDGAARVNYLSPKENAELLNWDAEKYRQQLNREGATLQLEHHHHHH	not soluble
MGSDKIHHHHHHMGHATEIQVLVVDESAPSRAFIASTLENGGYIVTSVASGEEAVHEVNAAPFDILVTDINLPGMSGLNLLKLLKDSFPDLEVVIVTSNASSFTAIKALRLGAYDFIIKPVDDPAILTNIVGRAVEKQSLTRENRRLMDDMKLKNRELHDALHLMKSANRLCTAISASLDAGEILKRLVEGAVEEVKAKKGYLLLLDRDGSSFSMKVSVGVSRTLAKGFRLRHDQGIAGLVATNNKPLRIDEEVPPPLTHRMLEEDPNGELFTTPGIVTVPLQFKGRVAGVVTLSGRADGRAFTDAEIEFLTTLANHSAIALDTAGAFYKLRKGTS	not soluble
MGSDKIHHHHHHMSDITHTGEHQALVVGATGIIGSAILHRLGAAEGWTAIGLSRSRRVAEGRARMLEVDLLDPQDCARKLGALNRITHIFYAAYQARPSRAEEVAPNVQMLRNVVDAVSGRARGLKKIVLITGAKFYGIQWGRVKTPMKETDARQLPPNFYYDQEDFLRDAQRQADWHWCNLIPPFVSGYSVGNPMNLVMAIGVFASLSRELNLPLRFPGLPGAWSALQQIADAEQIAAAAHWAATSPAANNEAFNVTNGDPIRWENFWPAVAGHFGMRLEAPKTLPLGRLMADNEAAWARMVERYRLQAASIAKLVDWNWADYMFRMEYDVLMETGKIRRAGFQDCVDTTERFLARFRQLQQQQIIPR	not soluble
